The target in this assay is T1, Cynomolgus monkey DLL3 antigen protein (Kactus Biosystems, Cat. No. CM103) (Cynomolgus monkey, UniProt Q9NYJ7 27-490 (human entry)).
T1 construct: also called cyno DLL3
T1 chain: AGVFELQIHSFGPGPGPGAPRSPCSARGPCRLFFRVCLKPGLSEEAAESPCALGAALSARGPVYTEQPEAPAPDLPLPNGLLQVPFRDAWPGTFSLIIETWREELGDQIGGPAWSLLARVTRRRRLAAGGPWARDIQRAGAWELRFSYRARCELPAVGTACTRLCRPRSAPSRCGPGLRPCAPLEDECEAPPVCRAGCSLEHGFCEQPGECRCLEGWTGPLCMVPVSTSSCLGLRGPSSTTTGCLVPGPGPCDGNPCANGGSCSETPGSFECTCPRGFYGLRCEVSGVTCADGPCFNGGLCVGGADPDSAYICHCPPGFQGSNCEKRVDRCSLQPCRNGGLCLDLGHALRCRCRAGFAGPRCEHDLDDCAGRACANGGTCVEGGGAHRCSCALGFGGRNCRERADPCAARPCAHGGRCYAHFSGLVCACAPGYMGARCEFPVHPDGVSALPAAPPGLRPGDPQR
Briefly: affinity assay with Cynomolgus monkey DLL3 antigen protein (kinetics; method not restated, Biacore as in Example 18 implied). Background: Surface plasmon resonance follows binding to a sensor surface in real time, without labels.

B1: H2-39E2D11 mouse hybridoma-derived humanized anti-DLL3 antibody (antibody, V domains shown)
VH: QVQLVQSGAEVKKPGASVKVSCKASGYTFISYWITWVRQAPGQGLEWMGDIYPGSGSTTNYNEKFKSRVTMTRDTSTSTVYMELSSLRSEDTAVYYCARETTVGGAYAMDYWGQGTLVTVSS
VL: EIVLTQSPATLSLSPGERATLSCRASQSINNNLHWYQQKPGQAPRLLIKYVSQSISGIPARFSGSGSGTDFTLTISSLEPEDFAVYYCQQTNSWPLTFGGGTKLEIK
B1: the Kd was 0.143 nM, the koff was 3.16e-05 s⁻¹ and the kon stood at 221000 M⁻¹ s⁻¹.

The term Kd denotes the constant that tells how readily two partners part at equilibrium. In general, koff refers to a measure of how fast the partners let go of each other. What is called kon is a measure of how fast the partners come together.
